Consider six molecules from US20220081485A1 (BEIJING WISDOMAB BIOTECHNOLOGY, published 2022).

Assay [1] addresses T1, recombinant hIL4R-his (human IL-4R extracellular domain with C-terminal His tag) (human (Homo sapiens), UniProt P24394 26-232).
T1 construct: The tag was added at the C-terminus; The protein was expressed in HEK293 cells; also called huIL4R
T1 sequence: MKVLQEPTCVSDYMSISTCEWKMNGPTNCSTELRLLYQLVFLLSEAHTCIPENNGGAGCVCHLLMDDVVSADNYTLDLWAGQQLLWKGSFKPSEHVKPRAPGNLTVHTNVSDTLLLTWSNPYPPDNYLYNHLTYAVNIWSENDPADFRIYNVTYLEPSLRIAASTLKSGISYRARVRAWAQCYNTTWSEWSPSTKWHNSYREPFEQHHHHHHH
In words: solid phase phage display screening with hIL4R-his as antigen.

The target of assay [2] is T2, coated recombinant IL4R antigen (Example 3.2) (human (Homo sapiens), UniProt P24394 26-232).
T2 sequence: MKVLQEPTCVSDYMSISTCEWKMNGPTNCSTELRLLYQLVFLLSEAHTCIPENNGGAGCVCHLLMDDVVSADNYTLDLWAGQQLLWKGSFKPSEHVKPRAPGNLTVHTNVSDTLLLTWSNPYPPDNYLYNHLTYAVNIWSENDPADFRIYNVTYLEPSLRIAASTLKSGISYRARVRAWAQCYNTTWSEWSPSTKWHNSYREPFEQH
In words: competition ELISA: phage-scFv at a fixed titer on coated recombinant IL4R, against a gradient of recombinant IL4; detected with HRP-anti-M13. On the technique in general: An ELISA detects its analyte on a solid surface through an enzyme-linked reagent.

In assay [3] the target is T3, IL4R-mFc (human IL-4R extracellular domain fused to murine IgG2a Fc) (human (Homo sapiens)).
T3 construct: also called antigen IL4R-mFc
In words: blocking ELISA: antibody gradient with IL4-his at a fixed concentration on coated IL4R-mFc; bound IL4-his detected with HRP-mouse-anti-his IgG. The procedure:
(§1) 96 well plates were coated with antigen IL4R-mFc (3 μg/ml, 100 μI/well) overnight at 4° C.

Assay [4] addresses T4, mmIL4R-mFc (Macaca mulatta IL-4R extracellular domain fused to murine IgG2a Fc) (Macaca mulatta).
T4 chain: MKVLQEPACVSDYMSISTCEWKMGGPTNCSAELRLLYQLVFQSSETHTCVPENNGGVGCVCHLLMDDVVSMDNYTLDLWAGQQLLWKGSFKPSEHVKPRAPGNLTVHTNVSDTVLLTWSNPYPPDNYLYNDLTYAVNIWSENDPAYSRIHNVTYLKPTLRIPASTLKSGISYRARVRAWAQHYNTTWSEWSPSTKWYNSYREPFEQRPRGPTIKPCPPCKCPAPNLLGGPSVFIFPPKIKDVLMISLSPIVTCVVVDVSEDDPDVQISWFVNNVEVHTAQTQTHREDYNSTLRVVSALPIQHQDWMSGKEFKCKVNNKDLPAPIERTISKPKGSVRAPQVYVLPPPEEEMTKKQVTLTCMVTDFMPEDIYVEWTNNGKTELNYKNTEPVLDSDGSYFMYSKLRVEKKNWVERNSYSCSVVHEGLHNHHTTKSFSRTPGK
Put plainly: SPR Biacore X100, antibody captured, mmIL4R-mFc as analyte. The procedure: (§2) The affinity of each anti-IL4R IgG4 chimeric antibody was determined using Biacore X100. Amino coupling kits, human antibody capture kits, CM5 chips, 1× HBS-EP (pH 7.4) and all reagents used in this assay were purchased from GE Healthcare. According to the instructions in the kits, an antibody against the human Fc region was coupled to the surface of the CM5 chip using an amino coupling method, and antibody proteins were diluted to appropriate concentrations to ensure that about 100 RU of the antibodies was captured by the antibody against the human Fc. IL4R-his was set to a series of concentration gradients (100 nm, 33.3 nm, 11.1 nm, 3.7 nm, 1.23 nm) and flew through the surface of the stationary phase.
Similarly, anti-IL4R monoclonal antibodies were captured and mmIL4R-mFc was set to a series of concentration gradient (50 nm, 16.7 nm, 5.56 nm, […], 0.62 nm).

Assay [5] addresses T5, human IL-4R on cells (HEK-Blue IL-4/IL-13 cells, TF-1 cells, human PBMCs) (human, UniProt P24394 26-825).
T5 sequence (looked up): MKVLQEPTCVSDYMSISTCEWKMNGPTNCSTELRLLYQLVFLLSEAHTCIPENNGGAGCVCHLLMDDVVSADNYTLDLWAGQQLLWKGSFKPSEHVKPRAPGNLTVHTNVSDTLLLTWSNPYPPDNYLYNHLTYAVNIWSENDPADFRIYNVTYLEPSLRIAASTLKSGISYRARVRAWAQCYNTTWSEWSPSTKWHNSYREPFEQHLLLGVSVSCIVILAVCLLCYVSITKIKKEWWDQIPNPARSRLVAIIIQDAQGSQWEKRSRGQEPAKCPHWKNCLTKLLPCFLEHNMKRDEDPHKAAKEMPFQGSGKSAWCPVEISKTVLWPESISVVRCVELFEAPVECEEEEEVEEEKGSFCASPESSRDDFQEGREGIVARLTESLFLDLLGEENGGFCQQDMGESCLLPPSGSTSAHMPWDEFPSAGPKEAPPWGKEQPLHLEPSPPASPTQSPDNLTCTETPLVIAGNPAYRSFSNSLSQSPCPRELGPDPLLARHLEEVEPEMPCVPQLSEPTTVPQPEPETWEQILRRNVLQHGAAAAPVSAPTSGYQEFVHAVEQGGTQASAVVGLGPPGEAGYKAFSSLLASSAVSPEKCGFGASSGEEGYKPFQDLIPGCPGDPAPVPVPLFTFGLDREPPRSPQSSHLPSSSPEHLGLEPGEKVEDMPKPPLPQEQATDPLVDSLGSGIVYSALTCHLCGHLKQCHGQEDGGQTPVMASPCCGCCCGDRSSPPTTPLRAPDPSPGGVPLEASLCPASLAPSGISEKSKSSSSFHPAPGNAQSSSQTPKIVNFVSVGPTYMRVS
Put plainly: cell-based or functional assay.

Assay [6] has as its target T1, recombinant hIL4R-his (human IL-4R …). Put plainly: SPR Biacore X100, antibody captured by anti-human Fc, IL4R-his as analyte, 25 C. The procedure:
as §2

Assay [7] concerns the target T5, human IL-4R on cells (HEK-Blue …). In words: cell-based or functional assay. This is another data set of the same source.
Assay [8] has the same target. In words: cell-based or functional assay. The source holds these as a separate data set.
In assay [9] the target is T3, IL4R-mFc (human IL-4R extracellular …). Put plainly: blocking ELISA: antibody gradient with IL4-his at a fixed concentration on coated IL4R-mFc; bound IL4-his detected with HRP-mouse-anti-his IgG. The method, then: as §1
This is another data set of the same source.

The target of assay [10] is T1, recombinant hIL4R-his (human IL-4R …). In words: SPR Biacore X100, antibody captured by anti-human Fc, IL4R-his as analyte, 25 C. The procedure: as §2
The source holds these as a separate data set. On the technique in general: Surface plasmon resonance follows binding to a sensor surface in real time, without labels.

Where two headings read alike, the source gives them in different places.

B1: S1H9 phage-scFv (scFv)
scFv: EVQLVESGGGLVQPGGSLRLSCAASGFTFSNYSMRWVRQAPGKGLEWVSFISASGSTKYYADSVKGRFTISRDNSKNTLYLQMNSLRAEDTAVYYCARKPTAPRSSALDYWGQGTLVTVSSGGGGSGGGGSGGGGSDIQMTQSPSSLSASVGDRVTITCRASQGVNNYLNWYQQKPGKAPKLLIYGASSRASGVPSRFSGSGSGTDFTLTISSLQPEDFATYYCQQRLSVPLTFGQGTKVEIK
notes: also called clone S1H9
Turning to B1, the binding result in assay [1] and in assay [2] was “binds” each time.

B2: S1E6 phage-scFv (scFv)
scFv: EVQLVESGGGLVQPGGSLRLSCAVSGFTFSSYAMSWVRQAPGKGLEWVSSITGGGGGIYYADSVKGRFTISRDNSKNTVYLQMNSLRAEDTAVYYCAKDRISITIRPRYFGLDFWGQGTTVTVSSGGGGSGGGGSGGGGSDIVMTQSPLSLPVTPGEPASISCRSSRSVLYGNGYNYLDWYLQKSGQSPQLLIYLGTNVAAGVPDRFSGSGSGTDFTLKISRVEAEDVGFYYCMQSLRTPYTFGQGTKLEIK
notes: also called clone S1E6; S1E6 single chain antibody
Take B2: the binding result in assay [1] and in assay [2] was “binds” throughout.

B3: L28F8-IgG4 (antibody, V domains shown)
VH: EVQLVESGGGLVQPGGSLRLSCAVSGFTFSSYAMSWVRQAPGKGLEWVSSITGGGGGIYYADSVKGRFTISRDNSKNTVYLQMNSLRAEDTAVYYCAKDRISITIRPRYFGLDFWGQGTTVTVSS
VL: DIVMTQSPLSLPVTPGEPASISCRSSQNVVYGNGYNYLDWYLQKSGQSPQLLIYLGTNVAAGVPDRFSGSGSGTDFTLKISRVEAEDVGFYYCMQSLQAPYTFGQGTKLEIKR
notes: also called S1E6 light chain mutant L28F8
As usually defined, the Kd is the free concentration of one partner at which half of the binding sites on the other are occupied at equilibrium, for simple one-to-one binding. What is called koff is the rate constant with which the complex falls apart. For orientation: kon means the rate constant with which the complex forms. As to B3, in assay [3], the “IC50 (read off the curve)” value is ~10 nM. Also, in assay [4], the Kd is 6.93 nM, the koff came out at 0.00519 s⁻¹ and the kon turned out to be 748000 M⁻¹ s⁻¹. In addition, the “IC50 values in inhibition of IL-4 (SEAP, HEK-Blue IL-4/IL-13 cells)” value in assay [5] stood at 0.055 nM. In assay [6], the Kd stood at 0.42 nM, the koff came to 0.000144 s⁻¹ and the kon came out at 342000 M⁻¹ s⁻¹. Moreover, the “IC50 values in inhibition of IL-13 (SEAP, HEK-Blue IL-4/IL-13 cells)” value in assay [7] came to 0.0121 nM. Moreover, the “IC50 values in inhibition of IL-4 (IL-4 induced proliferation of TF-1 cells, CellTiter-Glo)” value in assay [8] is 0.124 nM.

B4: S1E6-IgG4 (antibody, V domains shown)
VH: EVQLVESGGGLVQPGGSLRLSCAVSGFTFSSYAMSWVRQAPGKGLEWVSSITGGGGGIYYADSVKGRFTISRDNSKNTVYLQMNSLRAEDTAVYYCAKDRISITIRPRYFGLDFWGQGTTVTVSS
VL: DIVMTQSPLSLPVTPGEPASISCRSSRSVLYGNGYNYLDWYLQKSGQSPQLLIYLGTNVAAGVPDRFSGSGSGTDFTLKISRVEAEDVGFYYCMQSLRTPYTFGQGTKLEIKR
notes: also called monoclonal antibody S1E6
In the case of B4, the “IC50 (read off the curve)” value in assay [9] and in [3] was ~20 nM in each case. Moreover, the Kd in assay [4] is 9.3 nM; in [10], 2.95 nM; in assay [6], 2.84 nM. Moreover, the figures for the koff in assay [4], in assay [10] and in [6] were 0.0049 s⁻¹, 0.000923 s⁻¹ and 0.000709 s⁻¹, respectively. Moreover, the figures for the kon in [4], in [10] and in [6] were 527000 M⁻¹ s⁻¹, 312000 M⁻¹ s⁻¹ and 249000 M⁻¹ s⁻¹, respectively.

B5: L28G5-IgG4 (antibody, V domains shown)
VH: EVQLVESGGGLVQPGGSLRLSCAVSGFTFSSYAMSWVRQAPGKGLEWVSSITGGGGGIYYADSVKGRFTISRDNSKNTVYLQMNSLRAEDTAVYYCAKDRISITIRPRYFGLDFWGQGTTVTVSS
VL: DIVMTQSPLSLPVTPGEPASISCRSSRNVIYGNGYNYLDWYLQKSGQSPQLLIYLGNNVAAGVPDRFSGSGSGTDFTLKISRVEAEDVGFYYCMQSLQAPYTFGQGTKLEIKR
notes: also called S1E6 light chain mutant L28G5
For B5, the “IC50 (read off the curve)” value in assay [3] was ~8 nM. In assay [4], this molecule gave a dissociation constant Kd of 10.4 nM, a koff of 0.00709 s⁻¹ and a kon of 684000 M⁻¹ s⁻¹. Moreover, in assay [5], the “IC50 values in inhibition of IL-4 (SEAP, HEK-Blue IL-4/IL-13 cells)” value was determined as 0.0484 nM. Moreover, in [6], the Kd turned out to be 0.465 nM, the koff worked out at 0.000134 s⁻¹ and the kon worked out at 289000 M⁻¹ s⁻¹. In assay [7], the “IC50 values in inhibition of IL-13 (SEAP, HEK-Blue IL-4/IL-13 cells)” value was found to be 0.0115 nM. Besides, in [8], the “IC50 values in inhibition of IL-4 (IL-4 induced proliferation of TF-1 cells, CellTiter-Glo)” value amounted to 0.118 nM.

B6: S2C2 phage-scFv (scFv)
scFv: QVQLQQSGPGLVKPSQTLSLTCAISGDSVSSNNDAWNWIRQSPSRGLEWLGRTYYRSKWYNDYAVSLKGRITINPDTSKNQFSLHLNSVTPEDTAVYYCAKRDSSVGVGAMDVWSQGTTVTVSSGGGGSGGGGSGGGGSVIWMTQSPSSLSASVGDRVTITCRSSQYIGKYLNWYQYKKGQVPKLLIYAASSLRSGVPSRFSGRGSATEFTLTISNLQREDFATYYCQKYNAVPLTFGQGTKLEIK
notes: also called clone S2C2
B6: the binding result in assay [1] and in assay [2] was “binds” throughout.
